Laboratory results as given in patent publication US20210079037A1, “LIGHT-SWITCHABLE POLYPEPTIDE AND USES THEREOF” (TECHNISCHE UNIVERSITÄT MÜNCHEN, priority 2017, published 2021).
Numbered stars: 1 amine (or outer) side, 2 acyl side, 3 side chain; on linkers, the order of the positions; unused ones are H or OH. Square brackets hold non-standard residues; d marks the D form. Caf = 4′-carboxyphenylazophenylalanine, O=C([C@H](Cc1ccc(/N=N/c2ccc(C(=O)[*:3])cc2)cc1)N[*:1])[*:2]

Test system: mouse anti-6×His antibody alkaline phosphatase (AP) conjugate
Test: ELISA for light-induced reversible binding of an immunoglobulin to ProtL^Caf-ABD fusion proteins
Details: for change in enzyme activity of bound Ig-AP conjugate after irradiation with UV light: UV light at 365 nm, 5 min; for affinity for the IgG (ELISA signal): ground state / illuminated with visible light
Experimental: ELISA was performed at ambient temperature in a 96-well Maxisorb microtiter plate (Nunc, Langenselbold, Germany).
Then, the wells were blocked with […] Roti-Block (Carl Roth, Karlsruhe, Germany) diluted 1:10 in ddH2O for 1 h and washed three times with PBS containing 0.1% v/v Tween 20 (PBS/T). After that, the purified ProtL^Caf-ABD fusion protein from Example 11 was applied in a dilution series in PBS/T and incubated for 1 h to effect complex formation between the ABD moiety and the pre-adsorbed HSA. The wells were then washed three times with PBS/T and incubated with 50 μl of a 1:1000 dilution in PBS/T of the aforementioned mouse anti-6×His Ig-AP conjugate.
All subsequent washing steps were performed in the dark. […] After 5 min at 25° C., the absorbance at 405 nm was measured using a SpectraMax 250 microtiter plate reader (Molecular Devices, Sunnyvale, Calif., USA).

Molecule	change in enzyme activity of bound Ig-AP conjugate after irradiation with UV light	further results
ProtL^Caf337: ProtL-ABD fusion protein with Caf at position 337 and mutations Tyr361Asn and Leu365Ser (SEQ ID NO: 86) (protein) MKEEVTIKVNLI[Caf]ADGKTQTAEFKGTFEEATAKAYANADLSAKENGEYTADLEDGGNTINIKFAGGAVDANSLAEAKVLANRELDKYGVSDYYKNLINNAKTVEGVKALIDEILAALP	clear decrease	dissociation constant for the complex with the anti-6×His antibody (after irradiation with UV light at 365 nm): too low to deduce a dissociation constant; Kd (ground state (no UV), curve fit of the ELISA data, read-out: dissociation constant for the complex with the anti-6×His antibody): ~140 nM; affinity for the IgG (ELISA signal): showed affinity for the IgG; affinity for the IgG (ELISA signal) (listed as Caf337): high affinity
ProtL-ABD: unmodified protein L domain B1 fused to a human albumin-binding domain (SEQ ID NO: 61) (protein, ProtL-ABD fusion protein) MKEEVTIKVNLIFADGKTQTAEFKGTFEEATAKAYAYADLLAKENGEYTADLEDGGNTINIKFAGGAVDANSLAEAKVLANRELDKYGVSDYYKNLINNAKTVEGVKALIDEILAALP	did not reveal any change in binding activity	
ProtL^Caf347: ProtL-ABD fusion protein with Caf at position 347 and mutation Tyr361Ala (protein) MKEEVTIKVNLIFADGKTQTAE[Caf]KGTFEEATAKAYAAADLLAKENGEYTADLEDGGNTINIKFAGGAVDANSLAEAKVLANRELDKYGVSDYYKNLINNAKTVEGVKALIDEILAALP	much less signal decrease	
ProtL^Caf360: ProtL-ABD fusion protein modified with Caf at position 360 (protein) MKEEVTIKVNLIFADGKTQTAEFKGTFEEATAKAY[Caf]YADLLAKENGEYTADLEDGGNTINIKFAGGAVDANSLAEAKVLANRELDKYGVSDYYKNLINNAKTVEGVKALIDEILAALP	much less signal decrease	
ProtL^Caf364: ProtL-ABD fusion protein modified with Caf at position 364 (protein) MKEEVTIKVNLIFADGKTQTAEFKGTFEEATAKAYAYAD[Caf]LAKENGEYTADLEDGGNTINIKFAGGAVDANSLAEAKVLANRELDKYGVSDYYKNLINNAKTVEGVKALIDEILAALP	much less signal decrease	
ProtL^Caf368: ProtL-ABD fusion protein modified with Caf at position 368 (protein) MKEEVTIKVNLIFADGKTQTAEFKGTFEEATAKAYAYADLLAK[Caf]NGEYTADLEDGGNTINIKFAGGAVDANSLAEAKVLANRELDKYGVSDYYKNLINNAKTVEGVKALIDEILAALP	much less signal decrease	
ProtL^Caf369: ProtL-ABD fusion protein modified with Caf at position 369 (protein) MKEEVTIKVNLIFADGKTQTAEFKGTFEEATAKAYAYADLLAKE[Caf]GEYTADLEDGGNTINIKFAGGAVDANSLAEAKVLANRELDKYGVSDYYKNLINNAKTVEGVKALIDEILAALP	much less signal decrease	
